# Data published in patent US8569578B1, “Generating transgenic potatoes with novel resistance to potato cyst nematodes by silencing nematode parasitism genes of CLE -1 and CLE-4s” (The United States of America, as represented by the …, priority 2009, dated 2013).
# “Also recorded” adds a separate entry of the source.
# B1: Gr-CLE-4-C: G. rostochiensis CLE gene of class Gr-CLE-4 with a single CLE motif, cDNA SEQ ID NO: 5 (nucleic acid, listed as Globodera rostochiensis)
# DNA: ATCATAATTTCCAAAATCCCAATAAAAGCTTCCTCAATAAAGTAAATATGGCCACGAACACAATGCTTTGCCTGTTTGTTATAAGCGTTGTTCTCGCTCTCGCATTTGCTACGAATAAAAAGGGTGATGAAGAACCGGAGAACCATTCGACCGGCATTTTTGGAAAGGTCGGACGAGTTGTGACCGTGGCACTTGCGATGTCGTCTCGTCTGGGAGGGGCTGACGCAACCCGAGGAGGTGGAGCTGTATATGGAGGAAACTTGAAATCCAATCAATTGCCAAACAACAATTGGATGGCGCCACCTCCTCCAATGGCAATAAGAAGTGCCAAAGTCTATGATTCGAAACATTCTCCTGCTGAATATCTTAAAAAATTTGCTCAAGACTTTCGCCGAAAAACCGGCATGCACTCCCAGCGGCATCACGAAGAAACAACACTGGAACAGGAGAAGCGTGTAGCGGGAGCTGGTCCCGACCCAATACATCACTGATGCTCTTATTCACAATGCTAAAATATCTGTAGACTATAGATAAATTGCTAGCAACAG
# B2: Gr-CLE-4-B: G. rostochiensis CLE gene of class Gr-CLE-4, cDNA SEQ ID NO: 4 (nucleic acid, listed as Globodera rostochiensis)
# DNA: ATCATAATTTCCAAAATCCCAATAAAAGCTTCCTCAATAAAGTAAATATGGCCACGAACACAATGCTTTGCCTGTTAATTTTGAGCGTTGTTCTCGCTCTCGCATTTGCTACGAATAAAAAGGGTGATGAAGAACCGGAGAACCATTCGACCGGCATTTTTGGAAAGGTCGGACGAGTTGTGACCGTGGCACTTGCGATGTCGTCTCGTCTGGGAGGGGCTGACGCAACCCGAGGAGGTGGAGCTGTATATGGAGGAAACTTGAAATCCAATCTATTGCCAAACAACAATTGGATGGCGCCACCTCCTCCAATGGCAATGAGAAGTGCCAAAGTCTATGATTCGAAACATTCTCCTGCTGAATATCTTAAAAAATTTGCTCAAGACTTTCGCCGAAAAACCGGCATGCACTCCCAGCGGCATCACGAAGAAACAACACTGGAACAGGAGAAGCGTGTAGCGGGAGCTGGTCCCGACCCAATACATCACCAAGATACAACACTGGAACAGGAGAAGCGTGCAGTCCCAGCTGGGCCCGACCCAAAACATCACGAAGAAACAACACTGGAACAGGAGAAGCGTGCAGTCCCAGCTGGGCCCGACCCAAAACATCACGAAGAAACAACACTGGAACAGGAGAAGCGTGCAGTCCCAGCTGGGCCCGACCCAAAACATCACGAAGAAACAACATTTGAACAGGAGAAGCGTGGTGCGCCAGCTGGGCCCGACCCAATACATCACTGATGCTCTTATTCACAATGCTAAAATATCTGTAGACTATAGATAAATTGCTAGCAACAGATAAATGCCTGATCATAATGCTATGGCTAAGGTATCCGTATTCCGAACTAGCAATATAAGCGCATGCGTAGCTCTATCCATTTAATTTCACAATCTAAAGATTAAAATCTGCAGATATCTAGCTGTAGCTGGGCTATCTGCGGATGGAAAAATCGGCATTCTTAATATAATTTTTAATTGCTTAATAAACTTCAATAAAA
# B3: Gr-CLE-1: G. rostochiensis CLE gene, cDNA SEQ ID NO: 1, encoding a 204 amino acid secreted protein with four CLE motifs (nucleic acid, listed as Globodera rostochiensis)
# DNA: TATTAATATTGACTAATTTTTTTTTACAAACATATTAATATTGACTAAAAAAATTGATTTTAATAACGACTATAGATATTACTTATGGAGCAACAAAAATCGTCATATTTCCCATCAAATTCAAATAAAACAATCTCTCCAATAAAGTAAATATGGCCAAGAACGCAATGCTTTGCCTGCTGATTTTGAGCGTTGTTCTTGCTCTCGCATTTGCTACAAATGAAAAGGATGATAAAGAAGCGGGGAACCTTTCGACCGGCATTTTTGGAAAGGCCGGAAGATTTGTGACCGTGGCACTTGCGATGTCGTCTCGTCTGGGAGGGGCTGGCGCATCCCAAGGAGGTGGAGCTGTACATGGAGAAAGCTTGAAATCCAATCAATTGCAAAACGCCTATCGGATGGCGCTTCCTCCTCCAATGCAAATAAAAAGTGCCGAAATTGACGGATGGAAACCGTCTCCTGATGAATATCTTAAAAAATTTGCTCAAGAATTTCGCCGAAACACCGGTATGAAACCCCAGTCGTATAATGAAGAGAAGCGTGTAACGCCGGGAGGGCCCGACCCACTACATAACCGTGAAAAAATTCTGGAAGAACAGAAGCGTGTAACGCCGGGAGGGCCTGACCCACTACATAACCGTGAAAAAACTCTGGAAGAACAGAAGCGTGTAACGCCGGGAGGGCCTGACCCACTACATAACCGTGAAAAAACTCTGGAAGAACAGAAGCGTGTAACGCCGGGAGTGCCCGACCGACAACATCGCTGAGGCAATACAAAAAGAGTGAAAGAAAATCGACGGATGTCTTTAGTAATTTCAATTCGTTCCTATCTTTCTCGTTCTGAAGACCAAATATCGATGATGTTAATGTTATGTTCGGAAAACAATTTCTGATATGCGCACACTTGGCA
# Test system: Arabidopsis clv3-2 mutant plants
# Assay: complementation of clv3-2 mutant by Gr-CLE genes under CLV3 promoter
# Type: in vivo
# Conditions: gene under control of CLV3 promoter in clv3-2
# Description: Gr-CLE proteins can completely or partially replace CLV3 activity within meristems. For the complementation study, Gr-CLE genes were subcloned into pBU14 under the control of the CLV3 promoter (Brand et al. 2002. Plant Physiol. 129:565-575). To generate the PCLV3:Gr-CLE-1 construct, primer pair of CLE1-spF and CLE1-TGAxbaR was used. To generate PCLV3:Gr-CLE-4-B and PCLV3:Gr-CLE-4-C constructs, primer pair of CLE4B1-spF and 4B1-TGAxbaR was used. Each amplified PCR product was cloned into pBU14 at BamHI and XbaI sites. Arabidopsis clv3-2 mutant plants were transformed with A. tumefaciens GV3101 harboring each of the above constructs.
# All transformants were selected on ½×MS medium containing 50 μg/mL of kanamycin (Sigma-Aldrich) (for the pMD1 vector) or 30 μg/mL of glufosinate ammonium (Fisher, Pittsburgh, Pa., U.S.A.) (for the pBU14 vector) and transgenic Arabidopsis plants were then cultivated at 24° C. for 16 h of light and 8 h of dark in a growth room. For measuring the root growth rate, transgenic plants expressing individual Gr-CLE genes or the empty vector were first selected on kanamycin containing medium for five days, then transferred to ½×MS plates and cultured vertically at 24° C. for 16 h of light and 8 h of dark in a growth chamber (Percival, Perry, Iowa, U.S.A.).
# Gr-CLE-1, Gr-CLE-4-B, and Gr-CLE-4-C were the most representative Gr-CLE genes identified. To determine if these genes could replace CLV3 activity in the shoot and floral meristems, the full-length sequences of these three genes were cloned under the control of the CLV3 promoter and introduced into Arabidopsis clv3-2 mutant plants. clv mutants have enlarged shoot and floral meristems that lead to shoot fasciation and formation of extra floral organs including an increase in carpel number (Clark et al. 1993, 1995; Kayes and Clark 1998). For example, flowers of a clv3-2 mutant usually have six to seven carpels in the fourth whorl (Clark et al. 1995), whereas wild-type flowers have only two carpels in the fourth whole. Carpel number is a sensitive measurement for meristem size (Clark et al. 1993; Ni and Clark 2006). Multiple independent transgenic lines for each transgene were obtained and analyzed (Table 2).
Molecule,average number of carpels in flowers and siliques,rescue of clv3-2 meristem defects
B1,three to four,partial rescue
B2,two,nearly complete rescue
B3,three to four,partial rescue

# Test system: potato hairy roots
# Assay: overexpression of Gr-CLE genes in potato hairy roots
# Type: in vivo
# Conditions: measured at 4, 6, 8 and 10 days after dissecting; compared with vector control
# Description: To examine root meristems, primary root tips were excised from peptide treated Arabidopsis seedlings or from transgenic potato hairy roots and immediately mounted in water onto a glass slide. Roots were examined under an Olympus BX-50 microscope equipped with Nomarski optics and images were captured using a QImaging Retiga EXi digital CCD camera (QImaging, Surrey, BC, Canada). The root apical meristem (RAM) regions of individual primary roots that covered the distance from the position around the quiescent center to the position where elongated root cells immediately follow cytoplasm-dense meristematic cells were measured microscopically. The collected data were analyzed using the MetaMorph imaging analysis software (Universal Imaging Corporation, Downingtown, Pa., U.S.A.)
# A. rhizogenes strain 15834 was transformed with individual transgene constructs of interest and used for the generation of potato hairy roots as described previously (Wang et al. 2007. Mol. Plant Pathol. 8:423-436) with some modifications. Potato stem pieces from tissue cultures were incubated with the transformed A. rhizogenes cell suspension for 10 mins, then transferred onto the callus induction medium containing 1×MS salts (Sigma-Aldrich), 26.7 μM Glycine, 4 μM Nicotinic Acid, 2.4 μM Pyridoxine HCL (Sigma-Aldrich), 1.2 μM Thiamine HCL (Sigma-Aldrich), 0.5 μM Folic Acid, 0.2 μM d-biotin (Sigma-Aldrich), 0.01% Myo-inositol (Acros, Morris Plains, N.J., U.S.A.), 3% sucrose, 0.001% 6-BAP (Sigma-Aldrich), 0.002% NAA (Sigma-Aldrich), and 1% agar and cultivated for four days at 24° C. without light. The infected stem pieces were then cultured on the propagation medium containing 1×MS salts, 1.2 mM NaH2PO4, 0.01% Myo-inositol, 0.1% Thiamine HCl, 3% sucrose, 1% agar, 50 μg/mL of kanamycin, and 238 μg/mL of timentin (GlaxoSmithKline). Timentin was used to inhibit the growth of A. rhizogenes 15834 and kanamycin was added to select for transformed roots. Approximately 12-15 days after root emergence, 1 cm-long root tips were dissected and cultured on vertical plates containing the propagation medium with 119 μg/mL of timentin and the root growth rate was measured at different time points.
row,Molecule,length of primary roots of transgenic potato hairy root lines
1,B1,short root phenotype
2,B2,short root phenotype
3,B3,short root phenotype; also recorded: much shorter
